{"source": "patent US20120251547A1", "about": "(Amgen, published 2012)", "key": {"[1]": {"molecular_target": "T1, cynomolgus IL-17RA, on cells (cynomolgus)", "T1 construct": "whole, on cells; also called CHO-cynoIL-17RA; cyno IL-17RA+ CHO cells", "experiment": "FACS competition: non-clonal supernatant inhibiting biotin-huIL-17A (competitor) binding to cyno IL-17RA+ CHO cells"}, "chimera J": {"molecular_target": "T2, chimera J", "T2 construct": "human IL-17RA extracellular domain with mouse Domains D and E; column head D+E; also called Construct J", "experiment": "Bio-Plex titration on His-captured chimera;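 note: binding of anti-IL-17RA antibodies (4-fold titration across about 5 logs, 1 h) to His-captured IL-17RA chimeras on multiplexed beads, MFI read as percent of maximal wild-type human IL-17RA signal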"}, "chimera D": {"molecular_target": "T3, chimera D", "T3 construct": "human IL-17RA extracellular domain with mouse Domain D; column head 176-197; also called Construct D", "T3 IL-17RA extracellular domain with FLAG-polyHis tag": "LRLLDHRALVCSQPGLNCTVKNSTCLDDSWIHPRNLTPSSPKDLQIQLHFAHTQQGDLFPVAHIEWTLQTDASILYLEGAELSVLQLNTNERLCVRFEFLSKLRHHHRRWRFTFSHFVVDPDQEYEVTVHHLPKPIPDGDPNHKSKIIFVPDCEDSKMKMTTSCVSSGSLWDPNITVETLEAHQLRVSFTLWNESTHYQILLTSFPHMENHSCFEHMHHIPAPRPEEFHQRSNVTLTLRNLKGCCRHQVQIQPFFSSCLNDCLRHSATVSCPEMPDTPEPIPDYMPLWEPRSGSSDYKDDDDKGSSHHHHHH", "experiment": "Bio-Plex titration on His-captured chimera"}, "huIL-17RA-FLAG-polyHis [2]": {"molecular_target": "T4, huIL-17RA-FLAG-polyHis (human, UniProt Q96F46 33-320)", "T4 construct": "also called IL-17RA-FLAG-pHis; wild-type IL-17RA", "experiment": "binning; IL-17RA held by bead mAb Q"}, "huIL-17RA-FLAG-polyHis [3]": {"molecular_target": "T4, huIL-17RA-FLAG-polyHis", "experiment": "binning; IL-17RA held by bead mAb P"}, "[4]": {"molecular_target": "T1, cynomolgus IL-17RA, on cells", "experiment": "FACS competition: non-clonal supernatant inhibiting biotin-huIL-17A (competitor) binding to cyno IL-17RA+ CHO cells", "remark": "listed apart in the source"}, "huIL-17RA-FLAG-polyHis [5]": {"molecular_target": "T4, huIL-17RA-FLAG-polyHis", "experiment": "binning; IL-17RA held by bead mAb R"}, "huIL-17RA-FLAG-polyHis [6]": {"molecular_target": "T4, huIL-17RA-FLAG-polyHis", "experiment": "binning; IL-17RA held by bead mAb I"}, "huIL-17RA-FLAG-polyHis [7]": {"molecular_target": "T4, huIL-17RA-FLAG-polyHis", "experiment": "binning; IL-17RA held by bead mAb A"}, "huIL-17RA-FLAG-polyHis [8]": {"molecular_target": "T4, huIL-17RA-FLAG-polyHis", "experiment": "binning; IL-17RA held by bead mAb C"}, "huIL-17RA-FLAG-polyHis [9]": {"molecular_target": "T4, huIL-17RA-FLAG-polyHis", "experiment": "binning; IL-17RA held by bead mAb H"}, "[10]": {"molecular_target": "T5, human IL-17RA, full-length, on cells (human, UniProt Q96F46 33-866)", "experiment": "cell-based or functional assay"}, "huIL-17RA-FLAG-polyHis [11]": {"molecular_target": "T4, huIL-17RA-FLAG-polyHis", "experiment": "binning; IL-17RA held by bead mAb L"}, "huIL-17RA-FLAG-polyHis [12]": {"molecular_target": "T4, huIL-17RA-FLAG-polyHis", "experiment": "binning; IL-17RA held by bead mAb G"}, "huIL-17RA-FLAG-polyHis [13]": {"molecular_target": "T4, huIL-17RA-FLAG-polyHis", "experiment": "binning; IL-17RA held by bead mAb F"}, "huIL-17RA-FLAG-polyHis [14]": {"molecular_target": "T4, huIL-17RA-FLAG-polyHis", "experiment": "binning; IL-17RA held by bead mAb E"}, "[15]": {"molecular_target": "T5, human IL-17RA, full-length, on cells", "experiment": "cell-based or functional assay", "remark": "listed apart in the source"}, "huIL-17RA-FLAG-polyHis [16]": {"molecular_target": "T4, huIL-17RA-FLAG-polyHis", "experiment": "binning; IL-17RA held by bead mAb K"}, "huIL-17RA-FLAG-polyHis [17]": {"molecular_target": "T4, huIL-17RA-FLAG-polyHis", "experiment": "binning; IL-17RA held by bead mAb N"}, "huIL-17RA-FLAG-polyHis [18]": {"molecular_target": "T4, huIL-17RA-FLAG-polyHis", "experiment": "binning; IL-17RA held by bead mAb M"}, "huIL-17RA-FLAG-polyHis [19]": {"molecular_target": "T4, huIL-17RA-FLAG-polyHis", "experiment": "binning; IL-17RA held by bead mAb J"}, "huIL-17RA-FLAG-polyHis [20]": {"molecular_target": "T4, huIL-17RA-FLAG-polyHis", "experiment": "binning; IL-17RA held by bead mAb O"}, "huIL-17RA-FLAG-polyHis [21]": {"molecular_target": "T4, huIL-17RA-FLAG-polyHis", "experiment": "binning; IL-17RA held by bead mAb B"}, "[22]": {"molecular_target": "human IL-17RA (form used in the low resolution BIAcore not stated) (human, UniProt Q96F46 33-320, limits assumed)", "experiment": "low resolution BIAcore, subcloned hybridoma"}, "huIL-17RA-FLAG-polyHis [23]": {"molecular_target": "T4, huIL-17RA-FLAG-polyHis", "experiment": "binning; IL-17RA held by bead mAb D"}, "[24]": {"molecular_target": "T1, cynomolgus IL-17RA, on cells", "experiment": "cell-based or functional assay"}}, "note": "Where two headings read alike, the source gives them in different places."}
{"binder": "AMH15/AML15 (antibody, IgG2, V domains shown, human mAb from IgG2 XenoMouse mice; tested only as part of a non-clonal hybridoma supernatant; also called AM-15) VH: QVQLVESGGGVVQPGRSLRLSCAASGFTFSSYGMQWVRQAPGKGLEWVAVIWYDGNKKYYADSVKGRFTISRDNSKNTLYLQMNSLRAEDTAVYYCARGRVRDYYYGMDVWGQGTTVTVSS VL: EIVMTQSPATLSVSPGERVTLSCRASQSVSSNLAWFQQKPGQAPRPLIYDASTRAAGIPARFSGSGSGTDFTLTISSLQSEDFAVYYCQQYDNWPLTFGGGTKVEIK", "values": [{"measurement": "MFI", "setting": "[1]", "value": 6}]}
{"binder": "AMH26/AML26 (antibody, IgG2, V domains shown, human mAb from IgG2 XenoMouse mice; also called AM-26; antibody P) VH: QVQLVESGGGLVKPGGSLRLSCAASGFTFSDYYMSWIRQAPGKGLEWVSYISSSGSTIYYADSVKGRFTISRDNAKNSLYLQMNSLRAEDTAVYYCARDRTYYFGSGSYEGMDVWGQGTTVTVSS VL: EILMTQSPATLSVSPGERATLSCRASQSVYSNLAWYQQKPGQAPRLLISGASTRATGIPARFSGSGSGTEFTLTISSLQSEDFAVYYCQQYYNWPWTFGQGTKVEIK", "values": [{"measurement": "EC50", "setting": "chimera J", "value": 0.234, "unit": "nM"}, {"measurement": "EC50", "setting": "chimera D", "value": 0.145, "unit": "nM"}]}
{"binder": "AMH16/AML16 (antibody, IgG2, V domains shown, human mAb from IgG2 XenoMouse mice; also called AM-16; antibody O) VH: QVQLVQSGAEVKKPGASVKVSCKASGYTFTSYGISWVRQAPGQGLEWMGWISAYNGNTKYAQKLQGRVTMTTDTSTSTVYMELRSLRSDDTAVYYCARKQLVFDYWGQGTLVTVSS VL: EIVMTQSPATLSVSPGERATLSCRASQSISTSLAWYQQKPGQAPRLLIYGTSTRATGIPARFSGSGSGTEFTLTISSLQSEDFAVYFCQQYDIWPLTFGGGTKVEIK", "values": [{"measurement": "normalized MFI", "setting": "huIL-17RA-FLAG-polyHis [2]", "value": 135}, {"measurement": "normalized MFI", "setting": "huIL-17RA-FLAG-polyHis [3]", "value": 2540}, {"measurement": "MFI", "setting": "[4]", "value": 6}, {"measurement": "normalized MFI", "setting": "huIL-17RA-FLAG-polyHis [5]", "value": 76}, {"measurement": "normalized MFI", "setting": "huIL-17RA-FLAG-polyHis [6]", "value": 10}, {"measurement": "normalized MFI", "setting": "huIL-17RA-FLAG-polyHis [7]", "value": 3000}, {"measurement": "normalized MFI", "setting": "huIL-17RA-FLAG-polyHis [8]", "value": 4510}, {"measurement": "normalized MFI", "setting": "huIL-17RA-FLAG-polyHis [9]", "value": 120}, {"measurement": "% inhibition of IL-6 Production, IL-17A/HFF bioassay, non-clonal supernatant 1:4", "setting": "[10]", "value": 86, "unit": "%"}, {"measurement": "% inhibition of IL-6 Production, IL-17A/HFF bioassay, non-clonal supernatant 1:32", "setting": "[10]", "value": 90, "unit": "%"}, {"measurement": "% inhibition of IL-6 Production, IL-17A/HFF bioassay, non-clonal supernatant 1:128", "setting": "[10]", "value": 71, "unit": "%"}, {"measurement": "normalized MFI", "setting": "huIL-17RA-FLAG-polyHis [11]", "value": 18}, {"measurement": "normalized MFI", "setting": "huIL-17RA-FLAG-polyHis [12]", "value": 4490}, {"measurement": "normalized MFI", "setting": "huIL-17RA-FLAG-polyHis [13]", "value": 2220}, {"measurement": "normalized MFI", "setting": "huIL-17RA-FLAG-polyHis [14]", "value": 1260}, {"measurement": "IL-17A/HFF bioassay IC50, subclone 24", "setting": "[15]", "value": 1.6, "unit": "nM"}, {"measurement": "IL-17A/HFF bioassay IC50, subclone 25", "setting": "[15]", "value": 2.3, "unit": "nM"}, {"measurement": "IL-17A/HFF bioassay IC50, subclone 26", "setting": "[15]", "value": 1.4, "unit": "nM"}, {"measurement": "normalized MFI", "setting": "huIL-17RA-FLAG-polyHis [16]", "value": -111}, {"measurement": "normalized MFI", "setting": "huIL-17RA-FLAG-polyHis [17]", "value": 83}, {"measurement": "normalized MFI", "setting": "huIL-17RA-FLAG-polyHis [18]", "value": 73}, {"measurement": "normalized MFI", "setting": "huIL-17RA-FLAG-polyHis [19]", "value": 59}, {"measurement": "normalized MFI", "setting": "huIL-17RA-FLAG-polyHis [20]", "value": 139}, {"measurement": "normalized MFI", "setting": "huIL-17RA-FLAG-polyHis [21]", "value": 630}, {"measurement": "Kd", "setting": "[22]", "value": 6.2, "unit": "nM"}, {"measurement": "normalized MFI", "setting": "huIL-17RA-FLAG-polyHis [23]", "value": 1370}]}
{"binder": "AMH14/AML14 (antibody, V domains shown, human mAb from IgG2 XenoMouse mice; also called AM-14; antibody K) VH: QVQLVQSGAEVKKPGASVKVSCKASGYTFTRYGISWVRQAPGQGLEWMGWISTYSGNTNYAQKLQGRVTMTTDTSTSTAYMELRSLRSDDTAVYYCARRQLYFDYWGQGTLVTVSS VL: EIVMTQSPATLSVSPGERATLSCRASQSVSSNLAWFQQKPGQAPRPLIYDASTRATGVPARFSGSGSGTDFTLTISSLQSEDFAVYYCQQYDNWPLTFGGGTKVEIK", "values": [{"measurement": "cynomolgous IL-17A-induced IL-6 production from JTC-12 cells, IC50", "setting": "[24]", "value": "~1.2", "unit": "nM"}, {"measurement": "MFI", "setting": "[1]", "value": 10}]}
